# Patent US20160251408
# Columns and labels:
# [1] = system: VWF-055 (VWF D′D3-Fc fusion construct; 34 aa VWF linker comprising an a2 region from FVIII)
# [2] = system: VWF-034 (VWF D′D3-288XTEN-LVPR-Fc fusion construct)
# Chain of VWF-034 (VWF D′D3-288XTEN-LVPR-Fc fusion construct) (chain, as listed by the source): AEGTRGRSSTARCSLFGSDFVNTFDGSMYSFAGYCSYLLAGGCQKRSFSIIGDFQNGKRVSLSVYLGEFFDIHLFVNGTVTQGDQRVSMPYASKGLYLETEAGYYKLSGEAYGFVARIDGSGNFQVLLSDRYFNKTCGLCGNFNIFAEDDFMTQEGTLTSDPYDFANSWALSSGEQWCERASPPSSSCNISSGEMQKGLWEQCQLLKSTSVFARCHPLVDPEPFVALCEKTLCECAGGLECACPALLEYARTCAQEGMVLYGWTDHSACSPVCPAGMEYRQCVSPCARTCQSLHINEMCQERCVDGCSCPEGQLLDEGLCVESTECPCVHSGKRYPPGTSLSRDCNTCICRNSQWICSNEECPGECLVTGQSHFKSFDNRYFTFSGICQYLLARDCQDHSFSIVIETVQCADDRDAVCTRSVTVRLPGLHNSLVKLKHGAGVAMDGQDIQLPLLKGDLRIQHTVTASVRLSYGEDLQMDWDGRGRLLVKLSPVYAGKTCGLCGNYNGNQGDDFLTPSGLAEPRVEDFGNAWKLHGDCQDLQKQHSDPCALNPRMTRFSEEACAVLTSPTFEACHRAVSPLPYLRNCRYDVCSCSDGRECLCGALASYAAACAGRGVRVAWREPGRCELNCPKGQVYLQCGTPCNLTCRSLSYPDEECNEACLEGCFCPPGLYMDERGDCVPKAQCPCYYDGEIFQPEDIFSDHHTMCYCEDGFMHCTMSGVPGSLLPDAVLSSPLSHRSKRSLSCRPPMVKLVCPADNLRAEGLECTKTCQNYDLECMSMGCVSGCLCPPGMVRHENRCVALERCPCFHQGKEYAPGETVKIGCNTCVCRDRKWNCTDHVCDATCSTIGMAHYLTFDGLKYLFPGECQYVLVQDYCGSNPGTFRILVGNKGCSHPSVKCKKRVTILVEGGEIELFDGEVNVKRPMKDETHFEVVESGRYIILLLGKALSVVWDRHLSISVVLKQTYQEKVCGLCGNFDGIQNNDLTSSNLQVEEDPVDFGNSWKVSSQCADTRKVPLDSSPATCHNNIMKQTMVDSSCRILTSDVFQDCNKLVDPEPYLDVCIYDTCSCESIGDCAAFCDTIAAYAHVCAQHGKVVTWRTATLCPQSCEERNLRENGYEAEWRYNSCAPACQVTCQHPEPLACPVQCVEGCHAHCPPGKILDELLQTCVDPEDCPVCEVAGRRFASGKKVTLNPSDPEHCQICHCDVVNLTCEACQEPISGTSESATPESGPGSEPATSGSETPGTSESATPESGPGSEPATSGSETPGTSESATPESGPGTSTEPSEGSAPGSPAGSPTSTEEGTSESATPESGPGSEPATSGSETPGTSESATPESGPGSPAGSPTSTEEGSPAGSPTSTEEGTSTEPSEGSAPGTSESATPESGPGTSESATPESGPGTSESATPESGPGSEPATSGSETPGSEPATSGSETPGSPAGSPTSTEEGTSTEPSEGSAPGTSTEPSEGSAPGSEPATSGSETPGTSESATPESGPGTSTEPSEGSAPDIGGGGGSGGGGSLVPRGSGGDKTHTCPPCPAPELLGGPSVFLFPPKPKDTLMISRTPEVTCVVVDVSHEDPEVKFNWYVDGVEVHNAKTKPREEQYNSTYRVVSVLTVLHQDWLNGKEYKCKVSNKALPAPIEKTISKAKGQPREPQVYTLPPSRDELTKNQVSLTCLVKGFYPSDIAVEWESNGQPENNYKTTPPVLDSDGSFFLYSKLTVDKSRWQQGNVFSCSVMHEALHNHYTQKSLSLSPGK
# Chain of VWF-055 (VWF D′D3-Fc fusion construct; 34 aa VWF linker comprising an a2 region from FVIII) (chain, as listed by the source): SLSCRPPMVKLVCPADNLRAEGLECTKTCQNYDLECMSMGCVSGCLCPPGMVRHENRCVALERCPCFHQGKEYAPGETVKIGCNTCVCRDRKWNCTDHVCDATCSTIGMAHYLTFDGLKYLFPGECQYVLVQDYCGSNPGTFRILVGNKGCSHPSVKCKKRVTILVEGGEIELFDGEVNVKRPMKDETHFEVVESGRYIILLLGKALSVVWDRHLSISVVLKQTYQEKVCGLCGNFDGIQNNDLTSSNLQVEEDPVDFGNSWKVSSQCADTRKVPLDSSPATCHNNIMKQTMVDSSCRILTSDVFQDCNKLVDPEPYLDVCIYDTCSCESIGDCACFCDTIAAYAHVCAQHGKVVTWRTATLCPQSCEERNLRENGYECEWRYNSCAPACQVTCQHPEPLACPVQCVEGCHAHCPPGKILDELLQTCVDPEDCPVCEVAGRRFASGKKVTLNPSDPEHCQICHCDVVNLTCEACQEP
substance,measurement,setting,value
human alpha-thrombin,thrombin cleavage relative to VWF-039 (Biacore),[1],displayed similar thrombin cleavage as VWF-039 construct
same,thrombin cleavage rate relative to VWF-031 (Biacore),[2],displayed slower cleavage compared to VWF-031
